Article PMC12645962

How the values were obtained:
[1] = molecular target: 1059-SOSIP soluble Env trimer produced in FreeStyle 293 F cells (HIV-1 1059); assay: SEC; HiLoad 16/600 Superdex 200 pg column after GNA lectin affinity purification; trimeric fractions taken
[2] = molecular target: 1059-SOSIP soluble Env trimer produced in HEK293 cells grown in BalanCD medium (HIV-1 1059); assay: as above

Substance | stoichiometry N [1] | stoichiometry N [2]
1059-SOSIP soluble Env trimer produced in FreeStyle 293 F cells (domain or fragment) | 3 | –
1059-SOSIP soluble Env trimer produced in HEK293 cells grown in BalanCD medium (domain or fragment) | – | 3
